17 variants from the supplement of paper PMC7125110 can be followed below.

± gives the standard error. For some of these results: This sample holds only a part of the variants without activity. Where only a bound is given, the exact number is not on record here.

B1: glmS ribozyme (parent)
chain: AUAAAAGCGCCAGAACUACAGAAAUGUAGUUGACGAGGAGGAGGUUUAUCGAAUUUUCGGCGGAUGCCUCCAAA

Conditions in all cases: with glucosamine-6-phosphate
Data set [1] covers variants of B1. Kind of data set: kcat; higher = faster cleavage; RNA array. The gist of the method:
(§1)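 Using a hybridised Cy3 probe at 37 °C, barcoded ribozyme variants transcribed in situ by E. coli RNA polymerase on sequenced MiSeq chips were monitored across tiles imaged over ~14 h. The flow contained glucosamine-6-phosphate from 40 μM to 10 mM in HEPES/KCl/Mg(OAc)2 buffer. Signals were normalised to baseline and to non-cleaving reference variants before per-tile medians were fit to one- or two-exponential decays to yield kobs. Weighted Michaelis–Menten fits across concentrations gave kcat and KM.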

The variants in data set [2] derive from B1. The data set is described as follows: KM; higher = weaker cofactor use; RNA array. In a few lines: as §1
Data set [3] covers variants of B1. Kind of data set: self-cleavage kobs at 40 uM GlcN6P; higher = faster cleavage; RNA array. In a few lines: as §1
Data set [4] covers variants of B1. Kind of data set: self-cleavage kobs at 160 uM GlcN6P; higher = faster cleavage; RNA array. In a few lines:
as §1

The variants in data set [5] derive from B1. The data set is described as follows: self-cleavage kobs at 640 uM GlcN6P; higher = faster cleavage; RNA array. The gist of the method: as §1
Data set [6] covers variants of B1. The data set is described as follows: self-cleavage kobs at 2500 uM GlcN6P; higher = faster cleavage; RNA array. In a few lines: as §1
In data set [7] the parent is B1. Kind of data set: self-cleavage kobs at 10000 uM GlcN6P; higher = faster cleavage; RNA array. In a few lines:
as §1

For orientation: kcat means the number of substrate molecules converted per active site and unit of time at saturation. A word on the KM: it is the substrate concentration at which the rate is half of its maximum. In the case of AUAAAAGCGCCAGGACUACAGAAAUGUAGUUGACGAGGAGGAGGUUUAUCGAUUUUUCGGCGGAUGCCUCCAAA, the kcat with glucosamine-6-phosphate [1] was determined as 0.0349 ± 0.012 s⁻¹. In addition, the KM with glucosamine-6-phosphate [2] was found to be 1060 ± 450 µM. For the same variant, the “self-cleavage kobs at 40 uM GlcN6P” value with glucosamine-6-phosphate [3] was found to be 0.00142 ± 0.00015 s⁻¹. For the same variant, the “self-cleavage kobs at 160 uM GlcN6P” value with glucosamine-6-phosphate [4] came to 0.00482 ± 0.00076 s⁻¹. Moreover, the “self-cleavage kobs at 640 uM GlcN6P” value with glucosamine-6-phosphate [5] worked out at 0.011 ± 0.0013 s⁻¹. In addition, the “self-cleavage kobs at 2500 uM GlcN6P” value with glucosamine-6-phosphate [6] stood at 0.0342 ± 0.015 s⁻¹. For the same variant, in the data set with glucosamine-6-phosphate [7], the “self-cleavage kobs at 10000 uM GlcN6P” value was found to be 0.0446 ± 0.0086 s⁻¹.
AUAAAAGCGCCCGAACUACAGAAAUGUAUUUGACGAGGAGGAGGUUGAUCGAAUUUUCGGCGGAUGCCUCCAAA: the kcat with glucosamine-6-phosphate [1] turned out to be 0.00126 ± 0.00043 s⁻¹. Besides, the KM in the data set with glucosamine-6-phosphate [2] was found to be 4280 ± 2100 µM. Also, the “self-cleavage kobs at 640 uM GlcN6P” value in the data set with glucosamine-6-phosphate [5] was determined as 0.000151 ± 3.1e-05 s⁻¹. The “self-cleavage kobs at 2500 uM GlcN6P” value in the data set with glucosamine-6-phosphate [6] came to 0.000697 ± 0.00018 s⁻¹. Besides, the “self-cleavage kobs at 10000 uM GlcN6P” value with glucosamine-6-phosphate [7] is 0.000831 ± 0.00019 s⁻¹.
Regarding AUAAAAGCGCCAGAAGUACAGAAAUGUAGUUAACGAGGAGGAGGUUUAUCGAAUUUUCGGCGGAUGCUUCCAAA, the turnover number (kcat) in the data set with glucosamine-6-phosphate [1] was found to be 0.000119 ± 1.4e-05 s⁻¹. The “self-cleavage kobs at 640 uM GlcN6P” value with glucosamine-6-phosphate [5] is 0.000129 ± 3.9e-05 s⁻¹. Moreover, the “self-cleavage kobs at 2500 uM GlcN6P” value with glucosamine-6-phosphate [6] worked out at 9.95e-05 ± 3.8e-05 s⁻¹. Also, the “self-cleavage kobs at 10000 uM GlcN6P” value with glucosamine-6-phosphate [7] turned out to be 0.000115 ± 1.8e-05 s⁻¹.
AUAAAAGCGCCAGAACUACAGAAAUGUAGUUGACGAGGAGGAGGUGCAUCGAAUUUUCGGCGGAUGCCUCCAAA: the catalytic constant (kcat) in the data set with glucosamine-6-phosphate [1] came out at 0.00353 ± 0.0011 s⁻¹. Besides, the Michaelis-Menten constant (KM) with glucosamine-6-phosphate [2] worked out at 981 ± 440 µM. Further, the “self-cleavage kobs at 40 uM GlcN6P” value with glucosamine-6-phosphate [3] amounted to 0.000104 ± 2.7e-05 s⁻¹. Moreover, the “self-cleavage kobs at 160 uM GlcN6P” value in the data set with glucosamine-6-phosphate [4] came out at 0.000744 ± 0.00015 s⁻¹. The “self-cleavage kobs at 640 uM GlcN6P” value with glucosamine-6-phosphate [5] was determined as 0.00158 ± 0.00026 s⁻¹. In the data set with glucosamine-6-phosphate [6], the “self-cleavage kobs at 2500 uM GlcN6P” value was 0.00225 ± 0.00047 s⁻¹. In the data set with glucosamine-6-phosphate [7], the “self-cleavage kobs at 10000 uM GlcN6P” value stood at 0.00332 ± 0.0012 s⁻¹.
Consider AUAAAAGCGACAGAACUACAGAAAUGUAGUUGACGAGGAGGAGGUUUAUCGAAUUUUCGGAGGAUGCCUCCAAA, for which, in the data set with glucosamine-6-phosphate [1], the kcat worked out at 2.22e-05 ± 9.1e-06 s⁻¹. Further, the “self-cleavage kobs at 40 uM GlcN6P” value in the data set with glucosamine-6-phosphate [3] is < 1e-05 s⁻¹.
Take AUAAAAGCGCCAGAACUACAGAAAUGUAGUUGACGAAGAGGAGGUUUAUCGAAUUUUCGGCGGAUGCCCCCAAA: the kcat with glucosamine-6-phosphate [1] was 0.0003 ± 5.9e-05 s⁻¹. In the data set with glucosamine-6-phosphate [2], the KM was determined as 1170 ± 530 µM. The “self-cleavage kobs at 640 uM GlcN6P” value with glucosamine-6-phosphate [5] came to 0.000116 ± 2.2e-05 s⁻¹. Moreover, the “self-cleavage kobs at 2500 uM GlcN6P” value with glucosamine-6-phosphate [6] came to 0.000167 ± 3.3e-05 s⁻¹. For the same variant, the “self-cleavage kobs at 10000 uM GlcN6P” value in the data set with glucosamine-6-phosphate [7] stood at 0.000325 ± 5.8e-05 s⁻¹.
In the case of AUAAAAGCGCCAGAUGUACAGAAAUGUAGUUGACGAGGAGGAGGUUUAUGGGAUUUUCGGCGGAUGCCUCCAAA, the kcat with glucosamine-6-phosphate [1] worked out at 1.88e-05 ± 5.2e-06 s⁻¹.
With AUAAAAUCGCCAGAACUACAGAAAUGUAGUUGACGAGGAGGAGGUUUAUCGAAUUUUCGGCGGAUGUCUCCAAA, the kcat with glucosamine-6-phosphate [1] is < 1e-05 s⁻¹. In addition, the “self-cleavage kobs at 40 uM GlcN6P” value with glucosamine-6-phosphate [3] was < 1e-05 s⁻¹. Also, the “self-cleavage kobs at 160 uM GlcN6P” value in the data set with glucosamine-6-phosphate [4] was < 1e-05 s⁻¹. Moreover, the “self-cleavage kobs at 2500 uM GlcN6P” value with glucosamine-6-phosphate [6] is < 1e-05 s⁻¹.
Take AUAAAAGCGCCAGAACUACAGAAAUGUAGUUGACGAGGAGGAGGUAUAUCGAAUUUUCGGCGGAUGCCUCCAAA: the kcat with glucosamine-6-phosphate [1] stood at 0.00402 ± 0.00054 s⁻¹. In the data set with glucosamine-6-phosphate [2], the KM was determined as 1880 ± 330 µM. Further, the “self-cleavage kobs at 40 uM GlcN6P” value with glucosamine-6-phosphate [3] came to 9.25e-05 ± 2.1e-06 s⁻¹. Besides, the “self-cleavage kobs at 160 uM GlcN6P” value with glucosamine-6-phosphate [4] was determined as 0.000271 ± 1.3e-05 s⁻¹. Besides, the “self-cleavage kobs at 640 uM GlcN6P” value with glucosamine-6-phosphate [5] was 0.000926 ± 2.8e-05 s⁻¹. In addition, the “self-cleavage kobs at 2500 uM GlcN6P” value with glucosamine-6-phosphate [6] is 0.00341 ± 0.00031 s⁻¹. In the data set with glucosamine-6-phosphate [7], the “self-cleavage kobs at 10000 uM GlcN6P” value worked out at 0.00344 ± 9.1e-05 s⁻¹.
For the variant AUAAAAGCGCCAGAACUACAGAAAUGUAGUUAACGAGGAGGAGGUUUAUCGAAUUUUCGGCGGAUGCCUCUAAA, the kcat with glucosamine-6-phosphate [1] was 0.00395 ± 0.001 s⁻¹. The KM with glucosamine-6-phosphate [2] worked out at 4470 ± 1500 µM. The “self-cleavage kobs at 40 uM GlcN6P” value with glucosamine-6-phosphate [3] was 3.68e-05 ± 5.2e-06 s⁻¹. In the data set with glucosamine-6-phosphate [4], the “self-cleavage kobs at 160 uM GlcN6P” value amounted to 0.000159 ± 1.6e-05 s⁻¹. The “self-cleavage kobs at 640 uM GlcN6P” value with glucosamine-6-phosphate [5] was 0.000487 ± 4.1e-05 s⁻¹. Also, the “self-cleavage kobs at 2500 uM GlcN6P” value with glucosamine-6-phosphate [6] is 0.00122 ± 0.00011 s⁻¹. The “self-cleavage kobs at 10000 uM GlcN6P” value in the data set with glucosamine-6-phosphate [7] stood at 0.00326 ± 0.00033 s⁻¹.
As for AUAAAAGCGCCAGAACUACAGAAAUGUAGUUGACAAGGAGGAGGUUUAUCGAAUUUUCGGCGGAUGCCUCGAAA, the kcat in the data set with glucosamine-6-phosphate [1] is < 1e-05 s⁻¹. The “self-cleavage kobs at 160 uM GlcN6P” value with glucosamine-6-phosphate [4] was < 1e-05 s⁻¹. The “self-cleavage kobs at 640 uM GlcN6P” value with glucosamine-6-phosphate [5] was < 1e-05 s⁻¹.
AUAAAAGCGCCAGAACUACAGAAAUGUAGUUGACGAGGAGGAGGUUUAUAGAAUUUUCGGCGGAUGGCUCCAAA: the kcat with glucosamine-6-phosphate [1] was found to be 2.95e-05 ± 1.1e-05 s⁻¹. The “self-cleavage kobs at 40 uM GlcN6P” value in the data set with glucosamine-6-phosphate [3] was 1.98e-05 ± 9e-06 s⁻¹. Moreover, the “self-cleavage kobs at 2500 uM GlcN6P” value in the data set with glucosamine-6-phosphate [6] came out at 4.73e-05 ± 9.8e-06 s⁻¹.
Regarding AUAAAAGCGCCAGAACUACAGAAAUGUAGUUGACGAGGAGGAGGUAUAUCGAAUUUUCGGCGGAUGCGUCCAAA, the kcat in the data set with glucosamine-6-phosphate [1] was 2.56e-05 ± 5.1e-06 s⁻¹. In addition, the “self-cleavage kobs at 40 uM GlcN6P” value with glucosamine-6-phosphate [3] is < 1e-05 s⁻¹. Moreover, the “self-cleavage kobs at 2500 uM GlcN6P” value with glucosamine-6-phosphate [6] was 3.32e-05 ± 1.5e-05 s⁻¹.
As to AUAAAAGCGCCAGGACUACAGAAAUGUAGUUGACGAGGAGGAGGUUUAUCGAAUUCUCGGCGGAUGCCUCCAAA, the kcat with glucosamine-6-phosphate [1] was 0.021 ± 0.0052 s⁻¹. Moreover, in the data set with glucosamine-6-phosphate [2], the KM was 3490 ± 1200 µM. For the same variant, in the data set with glucosamine-6-phosphate [3], the “self-cleavage kobs at 40 uM GlcN6P” value is 0.000291 ± 4.2e-05 s⁻¹. For the same variant, the “self-cleavage kobs at 160 uM GlcN6P” value with glucosamine-6-phosphate [4] was 0.000647 ± 0.00018 s⁻¹. In the data set with glucosamine-6-phosphate [5], the “self-cleavage kobs at 640 uM GlcN6P” value worked out at 0.0033 ± 0.00071 s⁻¹. Further, the “self-cleavage kobs at 2500 uM GlcN6P” value with glucosamine-6-phosphate [6] turned out to be 0.0088 ± 0.0011 s⁻¹. The “self-cleavage kobs at 10000 uM GlcN6P” value with glucosamine-6-phosphate [7] is 0.0157 ± 0.0028 s⁻¹.
For AUAAAAGCGCCAGAACUACAGAAAUGUAGUCGACGAGGAGGAGGUUUAUCGAAUUUUCGGCGGAUGCGUCCAAA, the kcat with glucosamine-6-phosphate [1] worked out at 1.29e-05 ± 2.8e-06 s⁻¹.
In the case of AUAAAAGCGCCAGAACUACAGAAAUGUAGUUGACGAGGAGGAGGUUUUUCGAAUUCUCGGCGGAUGCCUCCAAA, the kcat with glucosamine-6-phosphate [1] was determined as 6.46e-05 ± 1e-05 s⁻¹. In the data set with glucosamine-6-phosphate [4], the “self-cleavage kobs at 160 uM GlcN6P” value is < 1e-05 s⁻¹. For the same variant, the “self-cleavage kobs at 2500 uM GlcN6P” value with glucosamine-6-phosphate [6] amounted to 4.13e-05 ± 1.7e-05 s⁻¹. Further, the “self-cleavage kobs at 10000 uM GlcN6P” value in the data set with glucosamine-6-phosphate [7] was found to be 5.09e-05 ± 7.6e-06 s⁻¹.
Regarding AUAAAAGCGCCCGCACUACAGAAAUGUAGUUGACGAGGAGGAGGUUUAUCGAAUUUUCGGCGGAUGCCUCCAAA, the kcat with glucosamine-6-phosphate [1] is 0.00082 ± 0.00025 s⁻¹. Also, the KM with glucosamine-6-phosphate [2] came to 6190 ± 2800 µM. The “self-cleavage kobs at 160 uM GlcN6P” value in the data set with glucosamine-6-phosphate [4] amounted to 4e-05 ± 1.8e-05 s⁻¹. Also, the “self-cleavage kobs at 640 uM GlcN6P” value in the data set with glucosamine-6-phosphate [5] amounted to 7.98e-05 ± 2e-05 s⁻¹. Also, in the data set with glucosamine-6-phosphate [6], the “self-cleavage kobs at 2500 uM GlcN6P” value turned out to be 0.000201 ± 5.1e-05 s⁻¹. In addition, the “self-cleavage kobs at 10000 uM GlcN6P” value with glucosamine-6-phosphate [7] was determined as 0.000534 ± 0.0001 s⁻¹.
